Patent publication US10945940B2, “Method of preparing ultra-low molecular weight keratin peptide” (KYUNGPOOK NATIONAL UNIVERSITY INDUSTRY-ACADEMIC COOPERATION …, priority 2015, dated 2021)

What was measured:
[1] = biological target: T1, Matrix metalloproteinase-1 (MMP-1) enzyme (Homo sapiens, UniProt P03956); assay: MMP-1 enzyme activity inhibition in vitro (MMP-1 Fluorometric Drug Discovery Kit); format: biochemical; details: for inhibition of MMP-1 enzyme activity compared to the group treated with the only MMP-1 enzyme: 10 μM; for significant effect of inhibiting MMP-1 activity: FIG. 5A
T1 construct: purchased Enzo
T1 sequence (P03956 100-269 limits assumed): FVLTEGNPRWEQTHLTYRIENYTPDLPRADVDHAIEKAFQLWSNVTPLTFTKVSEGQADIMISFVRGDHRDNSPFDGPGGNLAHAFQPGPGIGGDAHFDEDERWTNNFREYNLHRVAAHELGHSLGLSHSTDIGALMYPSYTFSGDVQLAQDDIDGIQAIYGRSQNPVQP
Description: MMP-1 Fluorometric Drug Discovery Kit manufactured by Enzo company was used to evaluate an ability to inhibit Matrix metalloproteinase-1 (MMP-1) enzyme activity in the peptide synthesized in Example 3. N-Isobutyl-N-(4-methoxyphenylsulfonyl) glycyl hydroxamic acid (NNGH) which is known to inhibit MMP-1 activity was used as a positive control group, and NNGH was treated at a concentration of 0.65 μM. […] The substrate was added to the reaction mixture, fluorescence thereof was measured at Ex/Em=540/590 nm, and the ability to inhibit MMP-1 activity was evaluated according to the following Equation 2. The results of the ability of inhibiting MMP-1 activity are illustrated in FIG. 5A. Ability to inhibit MMP-1activity(%)=Fluorescence intensity of sample-added group/Fluorescence intensity of non-treated group×100 [Equation 2]

[2] = test system: MMP-1 expression; assay: Inhibition of UVB-induced MMP-1 expression in human dermal fibroblasts (Western blot); format: cell-based; details: 10 μM, 20 mJ/cm^2 UVB
Description: Then, ultraviolet ray B was irradiated with 20 mJ/cm^2 using Vilber Lourmat (BioLink Crosslinker, France), cultured for 24 hours, and then cell proteins were recovered. At this time, the medium was removed before ultraviolet irradiation, and then washed with phosphate buffered saline (PBS) solution to remove serum components in the medium and then irradiated with ultraviolet ray B. The cells were washed twice with PBS solution to recover the proteins, and then the cells adhered to the bottom were recovered using a lysis buffer and centrifuged at 14,000 rpm for 10 minutes. After each supernatant was recovered, the protein concentration of each cell supernatant was quantified according to the method of use with a protein assay kit (Bio-Rad, USA) using bovine serum albumin (BSA) as the reference material. About […] protein from each of the protein extracts was denatured and separated by 8% gel sodium dodecyl sulphate-polyacrylamide gel electrophoresis (SDS-PAGE) and transferred to a polyvinylidene fluoride (PVDF) membrane at 120 mA for 2 hours. […]

| Substance | inhibition of MMP-1 enzyme activity compared to the group treated with the only MMP-1 enzyme [1] | significant effect of inhibiting MMP-1 activity [1] | inhibition of MMP-1 expression compared to the group treated with the only UVB [2] |
| --- | --- | --- | --- |
| FPQN [2n7-5] | inhibited the activity of MMP-1 enzyme | – | – |
| GFGGF [2n7-4] | inhibited the activity of MMP-1 enzyme | significant effect of inhibiting MMP-1 activity | – |
| GLSGL [KP7-1] | inhibited the activity of MMP-1 enzyme | significant effect of inhibiting MMP-1 activity | – |
| IQPSPV [KP7-2] | inhibited the activity of MMP-1 enzyme | significant effect of inhibiting MMP-1 activity | – |
| PISS [2n7-2] | inhibited the activity of MMP-1 enzyme | – | – |

The next lines start with results.

| inhibition of MMP-1 enzyme activity compared to the group treated with the only MMP-1 enzyme [1] | Substance | significant effect of inhibiting MMP-1 activity [1] | inhibition of MMP-1 expression compared to the group treated with the only UVB [2] |
| --- | --- | --- | --- |
| inhibited the activity of MMP-1 enzyme | GLGSR [2-2] | significant effect of inhibiting MMP-1 activity | ~35% |
| inhibited the activity of MMP-1 enzyme | GPTPL [2-1] | significant effect of inhibiting MMP-1 activity | about 24% |
